Measurements reported in publication PMC3876986, “The Velvet Family of Fungal Regulators Contains a DNA-Binding Domain Structurally Similar to NF-κB”.

Columns and labels:
Test in all cases: EMSA; EMSA: 10 mM HEPES/NaOH pH 7.4, 150 mM NaCl, ~53 pmol DNA in 10 ul, RT 15 min; DNA:protein molar ratios 1:0.3 to 1:9; 6% PAGE, 0.5% TBE, ethidium bromide
Settings in all cases: protein: recombinant; tags: Strep-tag (C-terminal); chain copies: 2; blunt
VosA1-190 K37A/K39A = biological target: T1, VosA1-190 K37A/K39A (Aspergillus nidulans, UniProt Q5BBX1 1-190, K37A;K39A)
T1 sequence: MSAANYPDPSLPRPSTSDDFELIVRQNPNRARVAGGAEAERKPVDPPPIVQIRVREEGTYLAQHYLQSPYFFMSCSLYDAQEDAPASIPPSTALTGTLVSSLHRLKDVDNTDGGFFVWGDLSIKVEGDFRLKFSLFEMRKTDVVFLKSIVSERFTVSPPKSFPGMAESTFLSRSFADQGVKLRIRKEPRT

VosA1-190 K160A = biological target: T2, VosA1-190 K160A (Aspergillus nidulans, UniProt Q5BBX1 1-190, K160A)
T2 sequence: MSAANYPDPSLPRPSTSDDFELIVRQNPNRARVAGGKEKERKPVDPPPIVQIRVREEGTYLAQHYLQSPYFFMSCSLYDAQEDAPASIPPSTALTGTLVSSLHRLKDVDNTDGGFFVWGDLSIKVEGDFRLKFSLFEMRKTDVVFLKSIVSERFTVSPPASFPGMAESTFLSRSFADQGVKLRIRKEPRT

VosA1-190 dead = biological target: T3, VosA1-190 dead (Aspergillus nidulans, UniProt Q5BBX1 1-190, K37A;K39A;R41A;K42A)
T3 sequence: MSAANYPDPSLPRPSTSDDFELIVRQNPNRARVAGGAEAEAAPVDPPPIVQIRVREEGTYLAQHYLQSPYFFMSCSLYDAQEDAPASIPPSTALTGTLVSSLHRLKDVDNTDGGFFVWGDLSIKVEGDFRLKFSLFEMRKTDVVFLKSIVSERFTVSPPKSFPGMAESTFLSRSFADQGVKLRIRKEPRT

B1: brlA 35 bp probe (OHS301/302) (dsDNA)
DNA 1: ATTCGGCGACTAGGATCTTACTGGCCGCGGCCGAG
DNA 2: CTCGGCCGCGGCCAGTAAGATCCTAGTCGCCGAAT
binding result (VosA1-190 K37A/K39A): no binding | binding result (VosA1-190 K160A): binds | binding result (VosA1-190 dead): no binding
